Experimental data from paper PMC3445047.

Substrate: CC(=O)N[C@H]1[C@H](Oc2ccc([N+](=O)[O-])cc2)O[C@H](CO)[C@@H](O)[C@@H]1O
Test: purified protein
Settings: pH 5.5, 30 °C

B1: OfHex2 (Ostrinia furnacalis) (protein)
chain: IYNNNPGPKYPPTKGEVWPKPQYQKLERYYFTVNTSAFKIKATNHTCPILAKAIERYSFIMRNTFNLDLNRKPKTSRHRLPRETNSEDPYYQGLLKELDIELISPCEEYPYFNMDESYELTISTTAKLLSSSIWGILRGLESWSHLLYLTDDKDGVSIDICVNRTHIADFPRYAHRGLLLDTGRHFISMSNILKTLDAMAMNKLNVFHWHIVDDQSFPYQSEKFPDLSGKGAFDPSLVYTKDDIARVVQYATERGIRVLPEFDVPGHTRSWGEAFPNVLTECFSDGKVVGVGPMNPTVNTTYKLFQELMEEVQEWFPDKYFHIGGDEVQFDCWESNPDLQQYMKDHHMTATQLHALFMKNVIPLLGNNTKPIVWQEVFDVGVPLSSDTIIHVWKNGWVEEMVKILKAGHRLIFSASWYLDHLKTGGDWEDMYMADPRLMVNLVDDTAPLDNIVGGEACMWGEVVDDTNVINRVWPRTSAAAERLWSAGLASNSLERNVRLSILDKARHRIEEHACRMRRRAINAQPPNGPGFCVGAKLF
Question: Which results are given for B1?
Answer: Km: 463 ± 27 µM; kcat: 151 ± 6.21 s⁻¹; kcat/Km: 326000 M⁻¹ s⁻¹
